Values quoted from earlier work in patent US20220031810A1, “FORMULATIONS OF GLUCAGON-LIKE-PEPTIDE-2 (GLP-2) ANALOGUES” (Zealand Pharma A/S, priority 2018, published 2022).
Like-named read-outs stand apart in the source and are kept apart here.

Hy-His-Ala-Asp-Gly-Ser-Phe-Ser-Asp-Glu-Met-Asn-Thr-Ile-Leu-Asp-Asn-Leu-Ala-Ala-Arg-Asp-Phe-Ile-Asn-Trp-Leu-Ile-Gln-Thr-Lys-Ile-Thr-Asp-OH [GLP-2 [1-33]]
half-life (in humans): around 7 minutes
half-life (in humans, listed as native GLP-2): seven

GLP-2 [3-33]: truncated GLP-2 [3-33] (DGSFSDEMNTILDNLAARDFINWLIQTKITD; Glucagon-like peptide 2; UniProt P01275 148-178, looked up, fragment)
half-life (in humans): ~27 min

CC[C@H](C)[C@H](NC(=O)[C@H](Cc1ccccc1)NC(=O)[C@H](CC(=O)O)NC(=O)[C@H](CCCNC(=N)N)NC(=O)[C@H](C)NC(=O)[C@H](C)NC(=O)[C@H](CC(C)C)NC(=O)[C@H](CC(N)=O)NC(=O)[C@H](CC(=O)O)NC(=O)[C@H](CC(C)C)NC(=O)[C@@H](NC(=O)[C@@H](NC(=O)[C@H](CC(N)=O)NC(=O)[C@H](CCSC)NC(=O)[C@H](CCC(=O)O)NC(=O)[C@H](CC(=O)O)NC(=O)[C@H](CO)NC(=O)[C@H](Cc1ccccc1)NC(=O)[C@H](CO)NC(=O)CNC(=O)[C@H](CC(=O)O)NC(=O)CNC(=O)[C@@H](N)Cc1c[nH]cn1)[C@@H](C)O)[C@@H](C)CC)C(=O)N[C@@H](CC(N)=O)C(=O)N[C@@H](Cc1c[nH]c2ccccc12)C(=O)N[C@@H](CC(C)C)C(=O)N[C@H](C(=O)N[C@@H](CCC(N)=O)C(=O)N[C@H](C(=O)N[C@@H](CCCCN)C(=O)N[C@H](C(=O)N[C@H](C(=O)N[C@@H](CC(=O)O)C(=O)O)[C@@H](C)O)[C@@H](C)CC)[C@@H](C)O)[C@@H](C)CC [teduglutide]
half-life (Gly substitution at position 2, compared with native GLP-2): about two
